Measured values published in patent publication US20180155451A1 (published 2018).

T1: FcγRIIb extracellular domain with C-terminal His tag (human, UniProt P31994 43-217)
T1 construct: extracellular domain; also called FcgRIIb; 2b; not shown: His tag attached to the C terminus
T1 sequence (looked up): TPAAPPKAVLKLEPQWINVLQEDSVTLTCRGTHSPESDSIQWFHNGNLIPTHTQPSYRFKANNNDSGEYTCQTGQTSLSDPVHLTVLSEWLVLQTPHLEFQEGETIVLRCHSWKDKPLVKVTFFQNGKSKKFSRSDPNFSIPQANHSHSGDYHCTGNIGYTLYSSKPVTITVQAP


Experiments:
[1] = molecular target: T2, FcγRIIIa extracellular domain with C-terminal His tag (human, UniProt P08637 17-208); assay: SPR (Biacore); He/Con_3a divided by He/Con_2b (reference: binding to FcγRIIb)
T2 construct: extracellular domain; also called FcgRIIIa; 3a; not shown: His tag attached to the C terminus
Procedure: (§1) Analysis of interaction between objective antibody and the FcγR was carried out using Biacore T100 (GE Healthcare). HBS-EP+ (GE Healthcare) was used as the running buffer, and the measurement temperature was set to 25° C. Chips produced by immobilizing the antigen peptide by the amine coupling method to a Series S Sencor Chip CM5 (GE Healthcare), or alternatively, chips produced by allowing preliminarily biotinylated antigen peptides to interact with and immobilize onto a Series S Sensor Chip SA (certified) (GE Healthcare) were used. Antibodies of interest were captured onto an antigen peptide-immobilized chip, and allowed to interact to each FcγR diluted with running buffer. To regenerate and repeatedly use the chip, the antibodies captured on the chip were washed off by reacting 10 mM glycine-HCl, pH 1.5.
(§2) The FcγR-binding activity of each antibody was assessed primarily using as an indicator the FcγR-binding activity and dissociation constant for FcγR.

[2] = molecular target: T2, FcγRIIIa extracellular domain with …; assay: SPR (Biacore), relative binding
Procedure: as §1, §2

[3] = molecular target: T1, FcγRIIb extracellular domain with …; assay: SPR (Biacore), relative binding
Procedure: as §1, §2

T2 sequence (P08637 17-208): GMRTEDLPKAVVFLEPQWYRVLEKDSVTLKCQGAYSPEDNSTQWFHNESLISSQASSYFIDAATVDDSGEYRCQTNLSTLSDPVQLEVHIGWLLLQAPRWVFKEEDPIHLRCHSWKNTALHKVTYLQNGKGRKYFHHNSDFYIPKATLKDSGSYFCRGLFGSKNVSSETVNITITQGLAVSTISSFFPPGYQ

| Binder | He_3a/2b (IIIa/IIb) [1] | He/Con_3a (IIIa binding) [2] | He/Con_2b (IIb binding) [3] |
| --- | --- | --- | --- |
| GpH7-A5/GpH7-B3 variant A327_10E/GpL16-k0 (antibody, human IgG1, kappa, Heterodimerized IgG1; alteration in one H chain only; also called He Ab) heavy 1: not shown heavy 2: not shown light: DIVMTQSPLSLPVTPGEPASISCQASESLVHSNRNTYLHWYLQKPGQSPQLLIYKVSNRFSGVPDRFSGSGSGTDFTLKISRVEAEDVGVYYCSQNTHVPPTFGQGTKVEIERTVAAPSVFIFPPSDEQLKSGTASVVCLLNNFYPREAKVQWKVDNALQSGNSQESVTEQDSKDSTYSLSSTLTLSKADYEKHKVYACEVTHQGLSSPVTKSFNRGEC | 0.49 ratio | 68.6 % of GpH7-A5/GpH7-B3/GpL16-k0 (=100) | 140 % of GpH7-A5/GpH7-B3/GpL16-k0 (=100) |
| GpH7-A5/GpH7-B3 variant A327_20W/GpL16-k0 (antibody, human IgG1, kappa, Heterodimerized IgG1; alteration in one H chain only; also called He Ab) heavy 1: not shown heavy 2: not shown light: DIVMTQSPLSLPVTPGEPASISCQASESLVHSNRNTYLHWYLQKPGQSPQLLIYKVSNRFSGVPDRFSGSGSGTDFTLKISRVEAEDVGVYYCSQNTHVPPTFGQGTKVEIERTVAAPSVFIFPPSDEQLKSGTASVVCLLNNFYPREAKVQWKVDNALQSGNSQESVTEQDSKDSTYSLSSTLTLSKADYEKHKVYACEVTHQGLSSPVTKSFNRGEC | 0.65 ratio | 51.2 % of GpH7-A5/GpH7-B3/GpL16-k0 (=100) | 78.8 % of GpH7-A5/GpH7-B3/GpL16-k0 (=100) |
| GpH7-A5/GpH7-B3 variant A327_14T/GpL16-k0 (antibody, human IgG1, kappa, Heterodimerized IgG1; alteration in one H chain only; also called He Ab) heavy 1: not shown heavy 2: not shown light: DIVMTQSPLSLPVTPGEPASISCQASESLVHSNRNTYLHWYLQKPGQSPQLLIYKVSNRFSGVPDRFSGSGSGTDFTLKISRVEAEDVGVYYCSQNTHVPPTFGQGTKVEIERTVAAPSVFIFPPSDEQLKSGTASVVCLLNNFYPREAKVQWKVDNALQSGNSQESVTEQDSKDSTYSLSSTLTLSKADYEKHKVYACEVTHQGLSSPVTKSFNRGEC | 0.46 ratio | 41.4 % of GpH7-A5/GpH7-B3/GpL16-k0 (=100) | 89.4 % of GpH7-A5/GpH7-B3/GpL16-k0 (=100) |
| GpH7-A5/GpH7-B3 variant K326_03V/GpL16-k0 (antibody, human IgG1, kappa, Heterodimerized IgG1; alteration in one H chain only; also called He Ab) heavy 1: not shown heavy 2: not shown light: DIVMTQSPLSLPVTPGEPASISCQASESLVHSNRNTYLHWYLQKPGQSPQLLIYKVSNRFSGVPDRFSGSGSGTDFTLKISRVEAEDVGVYYCSQNTHVPPTFGQGTKVEIERTVAAPSVFIFPPSDEQLKSGTASVVCLLNNFYPREAKVQWKVDNALQSGNSQESVTEQDSKDSTYSLSSTLTLSKADYEKHKVYACEVTHQGLSSPVTKSFNRGEC | 0.7 ratio | 122 % of GpH7-A5/GpH7-B3/GpL16-k0 (=100) | 175 % of GpH7-A5/GpH7-B3/GpL16-k0 (=100) |
| GpH7-A5/GpH7-B3 variant A327_18N/GpL16-k0 (antibody, human IgG1, kappa, Heterodimerized IgG1; alteration in one H chain only; also called He Ab) heavy 1: not shown heavy 2: not shown light: DIVMTQSPLSLPVTPGEPASISCQASESLVHSNRNTYLHWYLQKPGQSPQLLIYKVSNRFSGVPDRFSGSGSGTDFTLKISRVEAEDVGVYYCSQNTHVPPTFGQGTKVEIERTVAAPSVFIFPPSDEQLKSGTASVVCLLNNFYPREAKVQWKVDNALQSGNSQESVTEQDSKDSTYSLSSTLTLSKADYEKHKVYACEVTHQGLSSPVTKSFNRGEC | 0.54 ratio | 61.1 % of GpH7-A5/GpH7-B3/GpL16-k0 (=100) | 113 % of GpH7-A5/GpH7-B3/GpL16-k0 (=100) |
| GpH7-A5/GpH7-B3 variant A327_16H/GpL16-k0 (antibody, human IgG1, kappa, Heterodimerized IgG1; alteration in one H chain only; also called He Ab) heavy 1: not shown heavy 2: not shown light: DIVMTQSPLSLPVTPGEPASISCQASESLVHSNRNTYLHWYLQKPGQSPQLLIYKVSNRFSGVPDRFSGSGSGTDFTLKISRVEAEDVGVYYCSQNTHVPPTFGQGTKVEIERTVAAPSVFIFPPSDEQLKSGTASVVCLLNNFYPREAKVQWKVDNALQSGNSQESVTEQDSKDSTYSLSSTLTLSKADYEKHKVYACEVTHQGLSSPVTKSFNRGEC | 0.69 ratio | 43.7 % of GpH7-A5/GpH7-B3/GpL16-k0 (=100) | 63.5 % of GpH7-A5/GpH7-B3/GpL16-k0 (=100) |
| GpH7-A5/GpH7-B3 variant A327_15Y/GpL16-k0 (antibody, human IgG1, kappa, Heterodimerized IgG1; alteration in one H chain only; also called He Ab) heavy 1: not shown heavy 2: not shown light: DIVMTQSPLSLPVTPGEPASISCQASESLVHSNRNTYLHWYLQKPGQSPQLLIYKVSNRFSGVPDRFSGSGSGTDFTLKISRVEAEDVGVYYCSQNTHVPPTFGQGTKVEIERTVAAPSVFIFPPSDEQLKSGTASVVCLLNNFYPREAKVQWKVDNALQSGNSQESVTEQDSKDSTYSLSSTLTLSKADYEKHKVYACEVTHQGLSSPVTKSFNRGEC | 0.77 ratio | 46.8 % of GpH7-A5/GpH7-B3/GpL16-k0 (=100) | 60.8 % of GpH7-A5/GpH7-B3/GpL16-k0 (=100) |
